Reference: paper PMC11584402

Tests used:
[1] = target: MCL1-mCherry (human), Q07820; test: probe binding assay (PBA; single-molecule pull-down with TIRF counting); mCherry-labelled anti-apoptotic protein from HEK293T crude extract immobilised on the PEG surface (anti-RFP antibody); eGFP-labelled probe in crude HEK293T extract added at 0-20 nM eGFP, 10 min; fractional occupancy of surface baits fitted to [probe]/(Kd+[probe]); details: remark: other sources report otherwise
[2] = target: MCL1-mCherry (human), Q07820; test: probe binding assay (PBA; single-molecule pull-down with TIRF counting); mCherry-labelled anti-apoptotic protein immobilised from HEK293T crude extract on a PEG surface (biotinylated anti-RFP antibody); crude HEK293T extract with the eGFP-labelled probe diluted to a range of eGFP concentrations, 10 min; fractional occupancy of surface baits at equilibrium fitted with n fixed to 1 or with the generalized Hill …; details: remark: other sources report otherwise
[3] = target: BCLxL-mCherry (human), Q07817; test: as above; details: remark: other sources report otherwise
[4] = target: BCL2-mCherry (human), P10415; details: natural protein; chains chain; remark: other sources report otherwise
BCL2-mCherry (human), P10415, sequence (P10415 whole entry): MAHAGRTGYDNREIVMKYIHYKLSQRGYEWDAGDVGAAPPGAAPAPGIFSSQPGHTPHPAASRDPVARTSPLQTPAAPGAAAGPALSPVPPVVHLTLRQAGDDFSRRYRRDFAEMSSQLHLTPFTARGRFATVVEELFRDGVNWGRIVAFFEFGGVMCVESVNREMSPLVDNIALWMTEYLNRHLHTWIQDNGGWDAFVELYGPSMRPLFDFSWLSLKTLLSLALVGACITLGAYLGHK

MCL1-mCherry (human), Q07820, sequence (Q07820 whole entry): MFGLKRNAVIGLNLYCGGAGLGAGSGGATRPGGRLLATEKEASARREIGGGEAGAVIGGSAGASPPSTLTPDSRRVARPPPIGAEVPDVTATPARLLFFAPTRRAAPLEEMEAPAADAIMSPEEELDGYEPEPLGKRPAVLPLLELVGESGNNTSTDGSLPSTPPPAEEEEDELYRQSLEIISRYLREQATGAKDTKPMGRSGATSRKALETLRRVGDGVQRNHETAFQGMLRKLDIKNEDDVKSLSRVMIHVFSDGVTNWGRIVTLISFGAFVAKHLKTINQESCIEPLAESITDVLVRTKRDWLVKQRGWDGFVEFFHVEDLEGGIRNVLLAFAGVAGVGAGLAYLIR
BCLxL-mCherry (human), Q07817, sequence (Q07817 whole entry): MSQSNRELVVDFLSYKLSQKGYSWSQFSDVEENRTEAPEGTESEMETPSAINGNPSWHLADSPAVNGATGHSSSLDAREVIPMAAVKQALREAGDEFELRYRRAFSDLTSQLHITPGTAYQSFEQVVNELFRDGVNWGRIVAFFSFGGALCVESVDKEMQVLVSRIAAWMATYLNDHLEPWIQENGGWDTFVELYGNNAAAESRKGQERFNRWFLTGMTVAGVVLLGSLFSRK

B1: NOXA-eGFP, Q13794 1-54 (natural protein)
chain: MPGKKARKNAQPSPARAPAELEVECATQLRRFGDKLNFRQKLLNLISKLFCSGT
- Kd [1]: 4.1 nM
- Kd [2]: 4.1 nM

B2: BAD-eGFP, Q92934 1-168 (natural protein)
chain: MFQIPEFEPSEQEDSSSAERGLGPSPAGDGPSGSGKHHRQAPGLLWDASHQQEQPTSSSHHGGAGAVEIRSRHSSYPAGTEDDEGMGEEPSPFRGRSRSAPPNLWAAQRYGRELRRMSDEFVDSFKKGLPRPKSAGTATQMRQSSSWTRVFQSWWDRNLGRGSSAPSQ
- Kd [3]: 2.5 nM
- Kd [4]: 5.5 nM
